Paper PMC11840735

Target: USP14 (UniProt P54578)
Assay: co-IP, immunoblot
Details: reference: ALKBH5 wild type; sites S64,S69

Substance: ALKBH5 (from UniProt Q6P6C2) ALKBH5 S64A/S69A
- binding against the reference: weaker
